The labels stand for the following.
B1: AS78117VH4-hIgG1Fc (Fc fusion)
chain: EVQLVESGGGLVQPGGSLRLSCIVSRYTYATYSMAWFRQAPGKGLEGVSGLDSVGATGYAESVKGRFTISRDNSKNTLYLQMNSLRAEDTAVYYCVVDPASAKVTYGSWSTPSYAYWGQGTLVTVSS
notes: also called anti-GPC2 VHH-hIgG1Fc; not shown: human IgG1 Fc fragment (hIgG1Fc)
B2: AS79236VH6-hIgG1Fc (Fc fusion)
chain: EVQLVESGGGLVQPGGSLRLSCAVSGYTYSSYCMAWFRQAPGKGLEGVASIDAGGRTTYVDSVKGRFTISKDNAKNSLYLQMNSLRAEDTAMYYCAVDVRTRCGGTWDGEAVYFPYWGQGTLVTVSS
notes: as for B1
B3: AS70950VH6-hIgG1Fc (Fc fusion)
chain: EVQLVESGGGLVQPGGSLRLSCAISEFTYKNTCVGWFRQAPGKGREGVAAIDSDGNTNYVDSVKGRFTISQDNSKNTVYLQMNSLRAEDTAMYYCAAGAYCGRLLLWIGNYAYWGQGTLVTVSS
notes: as for B1

The first experiment has as its target T1, recombinant human GPC2-His protein (human, UniProt Q8N158 24-554, limits assumed).
T1 construct: Bought protein; The SPR paragraph gives no catalogue number for GPC2-His; also called recombinant Human Glypican 2 Protein; recombinant human GPC2 protein; not shown: His tag
T1 sequence (looked up): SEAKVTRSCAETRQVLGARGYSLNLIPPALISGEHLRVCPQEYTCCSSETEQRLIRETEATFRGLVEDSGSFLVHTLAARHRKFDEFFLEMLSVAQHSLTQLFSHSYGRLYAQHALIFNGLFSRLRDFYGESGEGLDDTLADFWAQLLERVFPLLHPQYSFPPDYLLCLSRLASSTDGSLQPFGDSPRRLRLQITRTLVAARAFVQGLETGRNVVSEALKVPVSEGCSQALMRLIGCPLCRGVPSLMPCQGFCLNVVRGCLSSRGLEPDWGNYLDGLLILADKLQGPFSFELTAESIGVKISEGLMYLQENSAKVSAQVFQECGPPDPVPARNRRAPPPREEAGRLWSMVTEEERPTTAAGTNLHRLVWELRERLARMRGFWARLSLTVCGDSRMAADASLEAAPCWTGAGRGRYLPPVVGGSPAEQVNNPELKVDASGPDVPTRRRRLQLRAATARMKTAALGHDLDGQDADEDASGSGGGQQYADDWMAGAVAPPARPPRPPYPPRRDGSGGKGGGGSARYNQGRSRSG
Briefly: SPR, Biacore T200, GPC2-His amine-coupled to CM5 chip, VHH-hIgG1Fc as analyte, 1:1 model. On the procedure: Each of the exemplary anti-GPC2 VHH sequences was cloned into a vector comprising a human IgG1Fc fragment (hlgG1Fc) sequence to facilitate recombinant expression of anti-GPC2 VHH-hlgG1Fc. Recombinant proteins were obtained and purified for SPR assays. The affinity of each anti-GPC2 VHH-hIgG1Fc for GPC2 was determined by SPR using a BIACORE® T200 analytical system (GE Healthcare). Briefly, recombinant human GPC2-His protein was covalently coupled to a CM5(s) sensor chip using an amine coupling kit. Exemplary VHH-hIgG1Fc proteins were serially diluted in running buffer (10 mM HEPES, 150 mM NaCl, 3 mM EDTA, 0.05% Tween-20, pH 7.4) and injected over the chip cell at a flowrate of 100 μL/min for 100 seconds followed by buffer-only injection for 300 seconds to allow for antibody dissociation. The dissociation […] (KD) were determined using the BIACORE® T200 evaluation software version 3.0 (Langmuir binding, local fit, 1:1 binding model).
For B1, the Kd is 0.82 nM, the koff was 0.00017 s⁻¹ and the kon was determined as 200000 M⁻¹ s⁻¹.
Take B2: the Kd is 0.37 nM, the koff amounted to 0.00019 s⁻¹ and the kon was 530000 M⁻¹ s⁻¹.
Take B3: the Kd is 0.27 nM, the koff is 0.00011 s⁻¹ and the kon came out at 390000 M⁻¹ s⁻¹.

In a further experiment the target is T2, recombinant human GPC6-His (human, UniProt Q9Y625 24-529, limits assumed).
T2 construct: Bought protein; also called RD System Cat #2845-GP; not shown: His tag
T2 sequence (looked up): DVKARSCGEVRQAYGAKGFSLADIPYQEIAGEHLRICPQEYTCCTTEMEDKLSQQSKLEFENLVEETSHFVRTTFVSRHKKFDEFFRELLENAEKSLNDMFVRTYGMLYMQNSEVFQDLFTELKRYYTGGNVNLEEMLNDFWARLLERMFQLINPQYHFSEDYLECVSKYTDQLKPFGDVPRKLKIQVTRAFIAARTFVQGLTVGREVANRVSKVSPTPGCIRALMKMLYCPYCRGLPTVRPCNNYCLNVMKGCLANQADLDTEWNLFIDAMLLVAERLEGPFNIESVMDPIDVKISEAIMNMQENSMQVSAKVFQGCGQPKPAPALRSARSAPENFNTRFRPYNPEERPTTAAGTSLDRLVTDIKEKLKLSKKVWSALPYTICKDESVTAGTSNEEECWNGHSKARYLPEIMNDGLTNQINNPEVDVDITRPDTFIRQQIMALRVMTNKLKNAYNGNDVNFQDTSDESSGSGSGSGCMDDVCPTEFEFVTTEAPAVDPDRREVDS
Briefly: ELISA, plate coated with 2 ug/mL rhGPC6-his, VHH-hIgG1Fc detected with HRP goat anti-human IgG, OD450. The method, then:
To evaluate the specificity of humanized anti-GPC2 VHH5 to recombinant human GPC2 protein, an ELISA-based binding assay was conducted to determine the differential target proteins binding of anti-GPC2 VHH5. Briefly, microplates were coated with 2 μg/mL recombinant human GPC1-His (RD System, Cat #4519-GP), GPC2-His (RD System, Cat #2304-GP), GPC3-His (ACRO, Cat #GP3-H5223), GPC4-Fc (RD System, Cat #9195-GP), GPC5-His (RD System, Cat #2607-G5/CF), GPC6-His (RD System, Cat #2845-GP) or recombinant mouse GPC2-His (RD System, Cat #2355-GP) proteins. Recombinant human protein coated plates were blocked with skim milk. Serially diluted humanized VHH-hIgG1Fc recombinant antibodies were added to each well of the plates and incubated at 4° C. for 1.5 h. Samples were further labelled with HRP-conjugated goat anti human IgG (H+L) secondary antibody (Genescript, Cat #A00166-1) and signal was developed with 3,3′,5,5′-Tetramethylbenzidine (TMB) substrate according to manufacturer's instruction. For the GPC4, VHH-His recombinant antibodies and anti-His tag secondary antibody (Genescript, Cat #A00612) were added to the GPC4-Fc coated plates instead. Optic density at 450 nm was measured by plate reader.
Take B1: the binding result is “no binding (tested: about 300 nM)”.
As for B2, the binding result is recorded as “no binding (tested: about 300 nM)”.
As for B3, the binding result is “no binding (tested: about 300 nM)”.

For the origin of these results see patent US20230136252A1 (NANJING LEGEND BIOTECH, published 2023).
